In paper PMC12114846, “Interleukin-15Rα-Sushi-Fc Fusion Protein Co-Hitchhikes Interleukin-15 and Pheophorbide A for Cancer Photoimmunotherapy” (Pharmaceutics, 2025):

Molecular target: IL-15 (Homo sapiens), P40933
Conditions: Fc fusion; remark: other sources report otherwise

IL-15 (Homo sapiens), P40933, sequence (P40933 49-162): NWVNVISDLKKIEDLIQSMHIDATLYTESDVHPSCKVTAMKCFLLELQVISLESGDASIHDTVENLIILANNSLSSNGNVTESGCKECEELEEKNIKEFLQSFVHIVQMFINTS

Kd: 0.115 nM
B1: rIL-15Rα-Fc, Q13261 (protein)
chain: ITCPPPMSVEHADIWVKSYSLYSRERYICNSGFKRKAGTSSLTECVLNKATNVAHWTTPSLKCIRDPALVHQRPAPPSTVTTAGVTPQPESLSPSGKEPAASSPSSNNTAATTAAIVPGSQLMPSKSPSTGTTEISSHESSHGTPSQTTAKNWELTASASHQPPGVYPQGHSDTT
